These results are taken from article PMC3260182, “Stabilisation of the Fc Fragment of Human IgG1 by Engineered Intradomain Disulfide Bonds” (PLoS ONE, 2012).

The data set concerns the molecule itself. Briefly: SEC; size-exclusion HPLC, TSK G3000 SWXL column, PBS with 200 mM NaCl, 1 ml/min, 50 ug protein at about 1 mg/ml; native conditions; molecular weight standards. (In general: In gel filtration, larger molecules generally elute earlier.)

B1: Fc fragment of human IgG1 with the CysP2 and CysP4 disulfide bonds combined (domain or fragment)
chain: EFTCPPCPAPELLGGPSVFLFPPKPKDTLMISRTPEVTCVVVDVSHEDPEVKFNWYVDGVEVHNAKTKPREEQYNSTYRVVSVLTVLHQDWLNGKEYKCKVSNKALPAPIEKTISKAKGQCREPQVYTLPPSRDELTKNQVSLTCLVKGFYPCDIAVEWESNGQPENNYKTTPCVLDSDGSFFLYSKLTVDKSRWQQGNVFSCSVMHECLHNHYTQKSLSLSPGK
modifications: N-linked glycosylation at residue Asn297; engineered intradomain disulfide bonds between Cys343 and Cys431 and between Cys375 and Cys396
notes: 2 extra amino acid residues at the N-terminal site due to the EcoRI site used for cloning; the substitutions are still to be applied; Fc fragment of the human IgG1 heavy chain constant region in which the CysP2 and CysP4 mutations are combined; the first letter T is position 225. numbers count on: Kabat EU numbering; Primers are in File S1; also called CysP24; FcCysP24; source: Pichia pastoris …
As for B1, the stoichiometry N – broadly, a count of units in the complex or per binding partner – came out at 2.
